Results as given in the RNAGym collection of RNA variant scans (doi:10.7554/elife.80360).

B1: HDV Ribozyme (parent)
chain: GGCCGGCAUGGUCCCAGCCUCCUCGCUGGCGCCGGCUGGGCAACAUUCCGAGGGGACCGUCCCCUCGGUAAUGGCGAAUGGGACCCA

Variants of: B1
Test: self-cleavage, relative activity (ratio to wild type); higher = more cleavage; co-transcriptional
In the case of U20A G54A, the self-cleavage is reported as 0.116.
Work on U20A C64A yielded a self-cleavage of 0.113.
Variant U20A C64G has a self-cleavage of 0.0639.
U20C A71C gave a self-cleavage of 0.0692.
U20A C36G gave a self-cleavage of 0.18.
Variant U20A C36A has a self-cleavage of 0.135.
U20A C36U showed a self-cleavage of 0.
Work on U20C G34C yielded a self-cleavage of 0.
Work on U20C C86U yielded a self-cleavage of 0.138.
C19U G28A showed a self-cleavage of 0.956.
Variant C19G U69C has a self-cleavage of 0.
C19G U69A showed a self-cleavage of 0.
U20C G53C gave a self-cleavage of 0.151.
Variant C19U A71U has a self-cleavage of 0.13.
For C19U G31U, the self-cleavage was 0.115.
With C19U G31C the self-cleavage was 0.0845.
With U20A U46G the self-cleavage was 0.166.
U20C G80A gave a self-cleavage of 0.0496.
C19U A56U gave a self-cleavage of 0.0863.
In the case of C19U C21U, the self-cleavage is reported as 0.0378.
For C19U G81U, the self-cleavage was 0.131.
With U20A C33U the self-cleavage was 0.
With U20C G54U the self-cleavage was 0.122.
Work on U20C C21A yielded a self-cleavage of 0.0475.
In the case of U20A A45G, the self-cleavage is reported as 0.
In the case of C19U C24G, the self-cleavage is reported as 0.0475.
Variant U20A C84A has a self-cleavage of 0.208.
Variant U20A G73A has a self-cleavage of 0.0791.
Work on U20A A56C yielded a self-cleavage of 0.0519.
With U20A A56G the self-cleavage was 0.0536.
For U20C C62A, the self-cleavage was 0.
With U20C G68A the self-cleavage was 0.111.
U20C G68C gave a self-cleavage of 0.192.
Variant U20C G68U has a self-cleavage of 0.145.
In the case of U20G A83C, the self-cleavage is reported as 0.158.
U20G A83G gave a self-cleavage of 0.16.
For U20A U79C, the self-cleavage was 0.
U20A U79A gave a self-cleavage of 0.0573.
U20A U79G showed a self-cleavage of 0.0665.
Work on U20C C30U yielded a self-cleavage of 0.157.
U20C C30A showed a self-cleavage of 0.0923.
In the case of U20A C30G, the self-cleavage is reported as 0.095.
Variant U20C G38U has a self-cleavage of 0.
For U20C G38C, the self-cleavage was 0.0831.
With U20A C62U the self-cleavage was 0.0475.
In the case of C19G U72G, the self-cleavage is reported as 0.
C19G U72A gave a self-cleavage of 0.0563.
Work on U20A G34A yielded a self-cleavage of 0.0992.
For U20A G34C, the self-cleavage was 0.199.
U20A A83G gave a self-cleavage of 0.14.
C19U C41G gave a self-cleavage of 0.116.
C19U C41A showed a self-cleavage of 0.0804.
Work on U20A G76C yielded a self-cleavage of 0.
In the case of C19U G54A, the self-cleavage is reported as 0.179.
For C19U G54U, the self-cleavage was 0.174.
U20C U79A gave a self-cleavage of 0.
Work on U20A C75G yielded a self-cleavage of 0.0791.
U20A U27A showed a self-cleavage of 0.0723.
In the case of C19U C84A, the self-cleavage is reported as 0.0554.
With C19U C84U the self-cleavage was 0.0811.
Work on U20C C49A yielded a self-cleavage of 0.172.
In the case of U20C G29A, the self-cleavage is reported as 0.0773.
Variant C19U U69C has a self-cleavage of 0.0997.
Work on U20C A51U yielded a self-cleavage of 0.185.
In the case of U20C G55A, the self-cleavage is reported as 0.0405.
U20A C41G gave a self-cleavage of 0.135.
U20G A77G showed a self-cleavage of 0.0692.
Work on U20G A77C yielded a self-cleavage of 0.178.
In the case of U20G A77U, the self-cleavage is reported as 0.237.
U20A G50A showed a self-cleavage of 0.0449.
In the case of U20A G50C, the self-cleavage is reported as 0.131.
Work on C19U G67U yielded a self-cleavage of 0.145.
Variant C19U U23G has a self-cleavage of 0.237.
C19U U20A showed a self-cleavage of 0.149.
C19U A78U showed a self-cleavage of 0.111.
C19U C49U showed a self-cleavage of 0.131.
U20C U37G gave a self-cleavage of 0.185.
Variant U20C U37A has a self-cleavage of 0.107.
U20A G39C showed a self-cleavage of 0.185.
Variant U20G A42U has a self-cleavage of 0.
With U20C C85G the self-cleavage was 0.0519.
In the case of U20A U23A, the self-cleavage is reported as 0.277.
In the case of U20C G40U, the self-cleavage is reported as 0.113.
For C19U C85G, the self-cleavage was 0.102.
For C19U C75G, the self-cleavage was 0.0739.
With U20C C33G the self-cleavage was 0.
For C19U A45G, the self-cleavage was 0.111.
For U20G C22A, the self-cleavage was 0.185.
Work on U20G C22U yielded a self-cleavage of 0.145.
Work on U20G C22G yielded a self-cleavage of 0.266.
U20A G29A gave a self-cleavage of 0.0773.
In the case of U20C U47A, the self-cleavage is reported as 0.133.
C19U A70U gave a self-cleavage of 0.169.
With U20C C41G the self-cleavage was 0.172.
U20G A51G showed a self-cleavage of 0.145.
In the case of U20G A51C, the self-cleavage is reported as 0.332.
U20A A77U gave a self-cleavage of 0.
For U20A A43U, the self-cleavage was 0.0386.
U20C G73U gave a self-cleavage of 0.0875.
Work on U20A G68C yielded a self-cleavage of 0.0978.
With C19G U79G the self-cleavage was 0.222.
Variant C19U C57A has a self-cleavage of 0.0886.
Variant C19U C66U has a self-cleavage of 0.22.
Variant C19U C66A has a self-cleavage of 0.182.
U20A G53U gave a self-cleavage of 0.0959.
In the case of U20A G52A, the self-cleavage is reported as 0.0415.
Variant U20A G52U has a self-cleavage of 0.0462.
Work on U20A U69A yielded a self-cleavage of 0.
Work on U20C C58G yielded a self-cleavage of 0.0923.
For U20G A71U, the self-cleavage was 0.151.
In the case of C19U U47G, the self-cleavage is reported as 0.0906.
In the case of C19U C62G, the self-cleavage is reported as 0.
In the case of U20C A78U, the self-cleavage is reported as 0.111.
Variant U20G A78U has a self-cleavage of 0.
Variant U20C C24A has a self-cleavage of 0.
Work on U20A G40A yielded a self-cleavage of 0.0426.
In the case of U20G C21U, the self-cleavage is reported as 0.26.
In the case of C19U C26U, the self-cleavage is reported as 0.718.
For U20C U65A, the self-cleavage was 0.166.
Work on U20C C32G yielded a self-cleavage of 0.138.
With U20C U27G the self-cleavage was 0.185.
In the case of U20C G39C, the self-cleavage is reported as 0.185.
U20C G74U gave a self-cleavage of 0.104.
For U20A C32U, the self-cleavage was 0.0811.
U20C C48A showed a self-cleavage of 0.341.
C19U C44A showed a self-cleavage of 0.
For C19U C44U, the self-cleavage was 0.0852.
In the case of U20A C57A, the self-cleavage is reported as 0.0978.
In the case of U20C G82C, the self-cleavage is reported as 0.0639.
Work on U20C G67A yielded a self-cleavage of 0.17.
In the case of U20C G81U, the self-cleavage is reported as 0.
With U20C A77U the self-cleavage was 0.0898.
In the case of U20C C61U, the self-cleavage is reported as 0.0723.
In the case of U20A G31C, the self-cleavage is reported as 0.0475.
U20A C26G gave a self-cleavage of 0.
C19U G34C showed a self-cleavage of 0.0346.
With U20C A42U the self-cleavage was 0.0978.
In the case of U20C G50A, the self-cleavage is reported as 0.306.
C19U G59C gave a self-cleavage of 0.205.
Variant C19U G59U has a self-cleavage of 0.194.
C19U G80A gave a self-cleavage of 0.0573.
U20C G76A showed a self-cleavage of 0.198.
For U20C G76U, the self-cleavage was 0.17.
Work on C19U A51C yielded a self-cleavage of 0.204.
Work on C19U G29U yielded a self-cleavage of 0.153.
Work on U20A C48G yielded a self-cleavage of 0.
In the case of U20A U47G, the self-cleavage is reported as 0.
Variant U20C G31C has a self-cleavage of 0.0594.
In the case of U20C C36U, the self-cleavage is reported as 0.131.
With U20A C85U the self-cleavage was 0.0405.
U20C C75A showed a self-cleavage of 0.0594.
In the case of U20A G74C, the self-cleavage is reported as 0.0396.
Variant C19U A43C has a self-cleavage of 0.111.
Work on C19U A43U yielded a self-cleavage of 0.104.
Work on U20A C22G yielded a self-cleavage of 0.
In the case of U20A C22U, the self-cleavage is reported as 0.
U20C A83G showed a self-cleavage of 0.149.
C19U U72A showed a self-cleavage of 0.0504.
With C19U U27A the self-cleavage was 0.332.
In the case of C19U U27C, the self-cleavage is reported as 0.135.
In the case of U20C U46G, the self-cleavage is reported as 0.
C19U A77C showed a self-cleavage of 0.0811.
Work on U20A U65G yielded a self-cleavage of 0.101.
U20A U65C gave a self-cleavage of 0.0639.
Work on C19U U46C yielded a self-cleavage of 0.213.
Work on C19U U46G yielded a self-cleavage of 0.
C19U C61U showed a self-cleavage of 0.0898.
